Experimental data published in patent publication EP2747783B1.

Experiments:
[1] = molecular target: human c-Met, cell membrane expressed (A549, BxPC-3, myeloma cells) (human) (UniProt P08581); experiment: cell-based or functional assay
[2] = molecular target: cynomolgus c-Met expressed on BAF3 cells (cynomolgus monkey); experiment: flow cytometry; competition with 0.5 nM biotinylated HGF on BAF3 cells with cynomolgus c-Met
[3] = molecular target: human c-Met, cell membrane expressed (A549, BxPC-3, myeloma cells) (human) (UniProt P08581); experiment: flow cytometry; competition with 1 nM biotinylated hHGF on A549 cells

Chain of human c-Met, cell membrane expressed (A549, BxPC-3, myeloma cells) (human) (P08581 25-1390 limits assumed, form in doubt): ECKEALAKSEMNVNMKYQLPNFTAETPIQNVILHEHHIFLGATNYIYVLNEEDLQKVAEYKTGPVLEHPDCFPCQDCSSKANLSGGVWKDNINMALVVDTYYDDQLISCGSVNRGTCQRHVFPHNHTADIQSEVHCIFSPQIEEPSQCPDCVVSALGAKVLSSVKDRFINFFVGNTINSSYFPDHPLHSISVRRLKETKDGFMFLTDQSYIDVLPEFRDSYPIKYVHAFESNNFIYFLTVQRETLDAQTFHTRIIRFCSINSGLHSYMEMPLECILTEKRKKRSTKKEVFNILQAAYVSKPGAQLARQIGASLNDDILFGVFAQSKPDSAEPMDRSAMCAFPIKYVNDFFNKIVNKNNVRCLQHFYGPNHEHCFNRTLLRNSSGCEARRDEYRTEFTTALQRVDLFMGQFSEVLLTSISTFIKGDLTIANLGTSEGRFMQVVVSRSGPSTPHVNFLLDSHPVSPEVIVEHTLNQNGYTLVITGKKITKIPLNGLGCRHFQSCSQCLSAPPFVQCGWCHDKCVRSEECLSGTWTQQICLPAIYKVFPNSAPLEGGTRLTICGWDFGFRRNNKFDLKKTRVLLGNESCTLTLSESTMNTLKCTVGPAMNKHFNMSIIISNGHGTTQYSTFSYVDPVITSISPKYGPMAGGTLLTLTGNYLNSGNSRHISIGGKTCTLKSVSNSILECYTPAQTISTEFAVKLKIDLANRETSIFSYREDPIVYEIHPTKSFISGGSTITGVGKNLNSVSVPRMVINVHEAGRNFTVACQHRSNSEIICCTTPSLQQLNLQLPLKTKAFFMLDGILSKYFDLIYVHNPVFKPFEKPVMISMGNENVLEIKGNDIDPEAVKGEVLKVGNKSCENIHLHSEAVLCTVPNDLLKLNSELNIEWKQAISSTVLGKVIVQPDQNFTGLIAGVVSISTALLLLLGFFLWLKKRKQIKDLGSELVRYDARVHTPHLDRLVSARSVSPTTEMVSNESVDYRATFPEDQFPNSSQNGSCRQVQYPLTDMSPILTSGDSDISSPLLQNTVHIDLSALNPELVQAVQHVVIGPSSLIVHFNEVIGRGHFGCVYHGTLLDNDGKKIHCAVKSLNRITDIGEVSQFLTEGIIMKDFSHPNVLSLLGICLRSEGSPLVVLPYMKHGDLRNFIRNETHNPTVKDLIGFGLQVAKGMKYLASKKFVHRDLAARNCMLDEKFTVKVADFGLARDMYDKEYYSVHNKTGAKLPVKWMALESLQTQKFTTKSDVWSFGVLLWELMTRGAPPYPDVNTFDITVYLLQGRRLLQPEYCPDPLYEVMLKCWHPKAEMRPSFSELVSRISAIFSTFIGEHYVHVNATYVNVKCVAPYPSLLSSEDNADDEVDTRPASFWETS
Chain of cynomolgus c-Met expressed on BAF3 cells (cynomolgus monkey) (A0M8R7 25-1381 S170N/I621T limits assumed, form in doubt): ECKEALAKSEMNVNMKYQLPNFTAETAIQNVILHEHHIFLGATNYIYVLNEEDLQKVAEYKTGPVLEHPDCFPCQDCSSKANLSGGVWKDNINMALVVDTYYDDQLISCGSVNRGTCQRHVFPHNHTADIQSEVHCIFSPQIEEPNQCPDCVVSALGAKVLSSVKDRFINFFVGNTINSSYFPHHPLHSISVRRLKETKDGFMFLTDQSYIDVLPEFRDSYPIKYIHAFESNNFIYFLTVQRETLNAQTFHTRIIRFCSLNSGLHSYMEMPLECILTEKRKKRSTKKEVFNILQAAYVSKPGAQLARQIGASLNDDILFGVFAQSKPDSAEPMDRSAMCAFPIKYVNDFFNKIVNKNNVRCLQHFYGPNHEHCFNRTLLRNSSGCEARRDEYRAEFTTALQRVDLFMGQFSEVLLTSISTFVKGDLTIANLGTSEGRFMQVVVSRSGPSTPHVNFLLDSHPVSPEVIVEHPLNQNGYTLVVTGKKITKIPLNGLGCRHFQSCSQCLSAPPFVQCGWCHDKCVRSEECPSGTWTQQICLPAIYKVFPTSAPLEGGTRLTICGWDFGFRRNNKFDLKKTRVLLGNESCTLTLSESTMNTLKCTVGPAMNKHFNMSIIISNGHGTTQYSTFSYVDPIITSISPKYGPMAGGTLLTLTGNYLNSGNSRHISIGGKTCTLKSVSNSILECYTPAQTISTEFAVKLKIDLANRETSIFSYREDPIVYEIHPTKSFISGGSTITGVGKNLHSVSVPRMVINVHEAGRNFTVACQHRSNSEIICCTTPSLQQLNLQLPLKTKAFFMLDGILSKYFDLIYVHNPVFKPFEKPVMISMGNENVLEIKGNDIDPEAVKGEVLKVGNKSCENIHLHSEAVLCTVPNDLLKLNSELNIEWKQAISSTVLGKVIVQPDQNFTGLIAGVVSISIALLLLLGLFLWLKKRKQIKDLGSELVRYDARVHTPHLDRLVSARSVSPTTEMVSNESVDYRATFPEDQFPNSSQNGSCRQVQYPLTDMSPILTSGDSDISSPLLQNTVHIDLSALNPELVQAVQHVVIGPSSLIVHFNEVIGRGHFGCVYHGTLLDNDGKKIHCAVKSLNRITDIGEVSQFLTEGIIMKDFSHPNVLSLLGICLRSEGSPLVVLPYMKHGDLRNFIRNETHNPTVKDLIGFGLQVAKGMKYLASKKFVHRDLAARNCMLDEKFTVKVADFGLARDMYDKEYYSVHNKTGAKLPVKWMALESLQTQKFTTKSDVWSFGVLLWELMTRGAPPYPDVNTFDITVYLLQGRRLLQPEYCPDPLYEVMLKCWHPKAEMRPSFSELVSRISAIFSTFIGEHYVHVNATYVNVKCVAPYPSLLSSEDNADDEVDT

c-Met phosphorylation without HGF (agonistic activity), A549 cells [1]	% inhibition [2]	% inhibition [3]	% inhibition, HGF-dependent A549 cell migration [1]	% inhibition, HGF-dependent c-Met phosphorylation, Experiment 1 [1]	% inhibition, HGF-dependent c-Met phosphorylation, Experiment 2 [1]	% inhibition, HGF-dependent proliferation of BxPC3 cells [1]	IC50, HGF-dependent c-Met phosphorylation, experiment 1 [1]	IC50, HGF-dependent c-Met phosphorylation, experiment 2 [1]	IC50 ratio to 5D5 Fab, HGF-dependent A549 cell migration [1]	IC50 ratio to 5D5 Fab, HGF-dependent c-Met phosphorylation, Experiment 1 [1]	IC50 ratio to 5D5 Fab, HGF-dependent c-Met phosphorylation, Experiment 2 [1]	IC50 ratio to 5D5 Fab, HGF-dependent proliferation of BxPC3 cells [1]	Substance
37 nM	100%	100%											anti-c-Met antibody 5D5
			112%	96.4%	95.9%	94.8%	10.4 nM	9.09 nM	1	1	1	1	anti-c-Met antibody fragment 5D5 Fab from mAb
